Test results published in patent US20150368338A1 (Janssen / Centocor, published 2015).
Positions count from the first letter of the chain named.

T1: IFN-αF (human, UniProt P01568 24-189)
T1 chain: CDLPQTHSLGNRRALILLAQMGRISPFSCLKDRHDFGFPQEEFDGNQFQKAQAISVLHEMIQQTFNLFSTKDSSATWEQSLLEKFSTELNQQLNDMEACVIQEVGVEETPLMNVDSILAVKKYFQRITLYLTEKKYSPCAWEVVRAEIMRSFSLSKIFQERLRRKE

B1: IFWM3332 (antibody, IgG1, V domains shown)
VH: EVQLVQSGAEVKKPGESLKISCKGSGYSFTSYWIGWVRQMPGKGLEWMGIIDPSDSDTRYSPSFQGQVTISADKSISTAYLQWSSLKASDTAMYYCARHPGLNWAPDFDYWGQGTLVTVSS
VL: DIQMTQSPSSLSASVGDRVTITCRASQSIANTNLNWYQQKPGKAPKLLIHWASSLQSGVPSRFSGSGSGTDFTLTISSLQPEDFATYYCQQWYDNPLTFGQGTKVEIK
B2: IFWM371 (antibody, IgG1, V domains shown)
VH: B1 VH
VL: not shown
B3: IFWM3421 (antibody, IgG1, V domains shown)
VH: B1 VH
VL: DIQMTQSPSSLSASVGDRVTITCRASQSIDGFLNWYQQKPGKAPKLLIYFASSLQSGVPSRFSGSGSGTDFTLTISSLQPEDFATYYCQQSYDLPITFGQGTKVEIK
B4: IFWM3314 (antibody, IgG1, V domains shown)
VH: B1 VH
VL: B3 VL with G31R, F32A, Y92F, L94F, I96L
B5: IFWM3320 (antibody, IgG1, V domains shown)
VH: B1 VH
VL: B3 VL with D30N, F32V, Y92H, L94F, I96L
B6: IFWM3322 (antibody, IgG1, V domains shown)
VH: B1 VH
VL: B3 VL with D30A, G31D, Y92H, D93S, L94F, I96L
B7: IFWM3304 (antibody, IgG1, V domains shown)
VH: B1 VH
VL: B3 VL with D30G, G31S, F32A, L94F, I96L
B8: IFWM3321 (antibody, IgG1, V domains shown)
VH: B1 VH
VL: B3 VL with F32A, S91A, L94F, I96L
B9: IFWM3307 (antibody, IgG1, V domains shown)
VH: B1 VH
VL: B3 VL with D30G, G31D, S91A, Y92L, L94F, I96L
B10: IFWM3405 (antibody, IgG1, V domains shown)
VH: B1 VH with N103A
VL: B1 VL with T32N, W92G, N95T, L97F
notes: mAb; IgG1/kappa said of the parent and of selected mAbs; also called IFWB3140
B11: IFWM3423 (antibody, IgG1, V domains shown)
VH: B1 VH with N103A
VL: B3 VL
B12: IFWM3310 (antibody, IgG1, V domains shown)
VH: B1 VH
VL: B3 VL with D30G, G31K, F32S, L94F, I96L
B13: IFWM3308 (antibody, IgG1, V domains shown)
VH: B1 VH
VL: B3 VL with D30A, G31E, Y92I, L94F, I96L
B14: IFWM3328 (antibody, IgG1, V domains shown)
VH: B1 VH
VL: DIQMTQSPSSLSASVGDRVTITCRASQSINNLNWYQQKPGKAPKLLIYWASSLQSGVPSRFSGSGSGTDFTLTISSLQPEDFATYYCQQGYDTPFTFGQGTKVEIK
B15: IFWM3400 (antibody, IgG1, V domains shown)
VH: B1 VH with N103A
VL: B3 VL with D30A, G31D, Y92H, D93S, L94F, I96L
notes: mAb; IgG1/kappa said of the parent and of selected mAbs; also called IFWB3135
B16: IFWM3410 (antibody, IgG1, V domains shown)
VH: B1 VH with N103A
VL: B1 VL
notes: mAb; IgG1/kappa said of the parent and of selected mAbs; also called IFWB3145
B17: IFWM3399 (antibody, IgG1, V domains shown)
VH: B1 VH with N103A
VL: B3 VL with F32A, S91A, L94F, I96L
notes: mAb; IgG1/kappa said of the parent and of selected mAbs; also called IFWB3134
B18: IFWM3385 (antibody, IgG1, V domains shown)
VH: B1 VH with N103A
VL: B3 VL with D30G, G31D, S91A, Y92L, L94F, I96L
notes: mAb; IgG1/kappa said of the parent and of selected mAbs; also called IFWB3120

target: T2, IFN-αC (human, UniProt P01566 24-189); assay: cell-based or functional assay

| Binder | IC50, ISRE assay [nM] |
| --- | --- |
| B1 | 0.479 |
| B2 | 53.9 |
| B3 | 0.02 |
| B4 | 0.157 |
| B5 | 0.392 |
| B6 | 0.306 |
| B7 | 0.117 |
| B8 | 0.266 |
| B9 | 0.583 |
| B10 | 0.068 |
| B11 | 0.012 |
| B12 | 0.196 |
| B13 | 0.996 |
| B14 | 1.42 |
| B15 | 0.138 |
| B16 | 0.168 |
| B17 | 0.189 |
| B18 | 0.272 |

target: IFN-αH2 (human, UniProt P01570 24-189); assay: cell-based or functional assay

| Binder | IC50, ISRE assay [nM] |
| --- | --- |
| B1 | 0.092 |
| B2 | 9.6 |
| B3 | 0.008 |
| B4 | 0.04 |
| B5 | 0.023 |
| B6 | 0.046 |
| B7 | 0.042 |
| B8 | 0.028 |
| B9 | 0.088 |
| B10 | 0.016 |
| B11 | 0.004 |
| B12 | 0.045 |
| B13 | 0.032 |
| B14 | 0.44 |
| B15 | 0.015 |
| B16 | 0.033 |
| B17 | 0.013 |
| B18 | 0.029 |

target: T3, IFN-αG (human, UniProt P01569 24-189); assay: cell-based or functional assay

| Binder | IC50, ISRE assay [nM] |
| --- | --- |
| B1 | 0.099 |
| B2 | 12.9 |
| B3 | 0.018 |
| B4 | 0.057 |
| B5 | 0.082 |
| B6 | 0.083 |
| B7 | 0.047 |
| B8 | 0.034 |
| B9 | 0.095 |
| B10 | 0.026 |
| B11 | 0.009 |
| B12 | 0.073 |
| B13 | 0.167 |
| B14 | 0.486 |
| B15 | 0.035 |
| B16 | 0.055 |
| B17 | 0.029 |
| B18 | 0.077 |

Target: T1, IFN-αF
Assay: cell-based or functional assay

| Binder | IC50, ISRE assay [nM] |
| --- | --- |
| B1 | 0.228 |
| B2 | 16 |
| B3 | 0.011 |
| B4 | 0.058 |
| B5 | 0.054 |
| B6 | 0.117 |
| B7 | 0.062 |
| B8 | 0.054 |
| B9 | 0.17 |
| B10 | 0.035 |
| B11 | 0.008 |
| B12 | 0.111 |
| B13 | 0.155 |
| B14 | 0.631 |
| B15 | 0.043 |
| B16 | 0.077 |
| B17 | 0.029 |
| B18 | 0.066 |

target: T2, IFN-αC; assay: ProteOn SPR, cell supernatant;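 note: each binding measurement used just a single antigen concentration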
Description: (§1) To increase the assay throughput, only one concentration of the individual antigen was used.

| Binder | Kd [nM] |
| --- | --- |
| B10 | 0.022 |
| B15 | 0.023 |
| B16 | 0.037 |
| B17 | 0.025 |
| B18 | 0.041 |

target: T4, IFN-α4a (human, UniProt P05014 24-189); assay: ProteOn SPR, cell supernatant;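 note: each binding measurement used just a single antigen concentration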
T4 construct: Recombinant, HEK293; also called IFN-αM1
Description: as §1

| Binder | Kd [nM] |
| --- | --- |
| B10 | 0.067 |
| B15 | 0.135 |
| B16 | 0.086 |
| B17 | 0.088 |
| B18 | 0.178 |

target: T5, human IFN-ω (human, UniProt P05000 24-195); assay: ProteOn SPR, cell supernatant;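 note: each binding measurement used just a single antigen concentration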
T5 construct: Recombinant, HEK293; also called interferon omega
Description: as §1

| Binder | Kd [nM] |
| --- | --- |
| B10 | 0.02 |
| B15 | 0.033 |
| B16 | 0.029 |
| B17 | 0.03 |
| B18 | 0.032 |

target: T6, IFN-αWA (human, UniProt P05015 24-189); assay: ProteOn SPR, cell supernatant;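 note: each binding measurement used just a single antigen concentration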
T6 construct: Recombinant, HEK293; also called IFN-α16
Description: as §1

| Binder | Kd [nM] |
| --- | --- |
| B10 | 0.039 |
| B15 | 0.049 |
| B16 | 0.052 |
| B17 | 0.037 |
| B18 | 0.052 |

target: T3, IFN-αG; assay: ProteOn SPR, cell supernatant;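 note: each binding measurement used just a single antigen concentration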
Description: as §1

| Binder | Kd [nM] |
| --- | --- |
| B10 | 0.015 |
| B15 | 0.052 |
| B16 | 0.052 |
| B17 | 0.03 |
| B18 | 0.023 |

target: T7, IFN-αJ1 (human, UniProt P01567 24-189); assay: ProteOn SPR, cell supernatant;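 note: each binding measurement used just a single antigen concentration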
T7 construct: Recombinant, HEK293; also called IFN-α7
Description: as §1

| Binder | Kd [nM] |
| --- | --- |
| B10 | 0.036 |
| B15 | 0.06 |
| B16 | 0.082 |
| B17 | 0.05 |
| B18 | 0.142 |

Target: T1, IFN-αF
Assay: ProteOn SPR, cell supernatant
Description: as §1

| Binder | Kd [nM] |
| --- | --- |
| B10 | 0.019 |
| B15 | 0.022 |
| B16 | 0.052 |
| B17 | 0.021 |
| B18 | 0.041 |
